Assay results from US20050002904A1, “Uses of vascular endothelial growth factor and type I collagen inducible protein (VCIP)” (priority 2003, published 2005).
Where no end group is shown, it is not given here.

Assays:
α2β1 integrin = α2β1 integrin (Homo sapiens, UniProt P05556+P17301); experiment: Solid phase ligand binding assay (ELISA); conditions: immobilized integrin, GST-fusion ligand in solution
Protocol: (§1) FIG. 10A: Affinity purified GST-fusion proteins were resolved on SDS±PAGE and stained with Coomassie Blue. FIG. 10B: Integrins were immobilized onto 96-well plates, and various GST-fusion proteins (ligands) were allowed to bind. Bound ligands were incubated with anti-GST antibodies, appropriate substrate added and the color intensity measured. OD values <0.05 were considered to be background binding. Data are expressed as mean±SD (n=4). FIG. 10C: Dose-dependent binding of αvβ3 integrin with recombinant GST-VCIP-RGD. FIGS. 10D-F: Representative photomicrographs of adhesion and spreading of endothelial cells replated onto dishes coated with either […]. Cells were allowed to attach for 45 min, washed with PBS and stained with H&E. Magnification, 100×. Bar, 25 μm. FIG. 10G: Adhesion blocking assays. Endothelial cells were replated onto dishes coated with increasing concentrations of affinity purified fusion proteins (1, 5 and 10 nM). Attached cells were stained, washed and absorbances of eluted dyes measured. To determine the effects of anti-integrin antibodies, dishes were coated with 10 nM GST-VCIP-RGD. Endothelial cells were pre-incubated at 4° C. with increasing concentrations of anti-α5β1 (P1D6), anti-αvβ3 (LM609), anti-α2β1 (MAB 1998) and anti-α3β1 (P1B5) monoclonal antibodies (1, 5 and 10 μg/ml) for 30 min, then washed and replated onto coated dishes. Attached cells were stained, washed and absorbances of eluted dyes determined. Three independent experiments were performed with several replicate samples in each experiment. Data are expressed as mean±S.D.; diamond, P<0.01; asterisk, P<0.001. FIG. 10H: Clarified extracts prepared from [^35S]Cys/Met-labeled HdMVEC were pre-adsorbed and incubated with GST-VCIP-RGD in the absence (−) or presence (+) of GRGDSP peptide (lanes 1 and 2). The presence of αvβ3 and α5β1 integrins (lanes 5 and 6) in GST-VCIP pull-down complex (lane 1) was confirmed by incubating aliquots of dissociated complex with the indicated antibodies. Anti-mouse IgG was included as negative control (lane 3).
(§2) Solid phase ligand binding assays were performed according to a previously published procedure (Orlando and Cheresh, 1991). Briefly, soluble α2β1, α5β1, αvβv3 and αvβ5 integrins (1 μg/ml in a solution containing 20 mM Tris pH 7.4, 150 mM NaCl, 1 mM CaCl2, 1 mM MgCl2 and 1 mM MnCl2) were immobilized onto 96-well microtiter plates at 4° C. Wells were washed and blocked with 0.5% BSA. After washing, GST, GST-VCIP-RGD and GST-VCIP-RGE ligands were added (50-350 ng per well in a solution of TBS pH 7.4) and incubated at 37° C. for 1 h. After washing, the wells were incubated with the anti-GST (sc-138, Santa Cruz) monoclonal antibody for 1 h, followed by washing and incubation with a horseradish peroxidase (HRP)-conjugated mouse secondary antibody. Plates were then washed again and the ABTS substrate (Bio-Rad) was added. All washing steps were carried out using PBS. Absorbances were read at 405 nm, and non-specific binding values were adjusted against BSA.
(§3) To determine whether GST-VCIP-RGD could interact with various integrins, a solid-phase ligand binding assay was performed.

α5β1 integrin = α5β1 integrin (Homo sapiens, UniProt P05556+P08648); experiment: Solid phase ligand binding assay (ELISA); conditions: immobilized integrin, GST-fusion ligand in solution
Sequence of α5β1 integrin (P08648 42-894 limits assumed): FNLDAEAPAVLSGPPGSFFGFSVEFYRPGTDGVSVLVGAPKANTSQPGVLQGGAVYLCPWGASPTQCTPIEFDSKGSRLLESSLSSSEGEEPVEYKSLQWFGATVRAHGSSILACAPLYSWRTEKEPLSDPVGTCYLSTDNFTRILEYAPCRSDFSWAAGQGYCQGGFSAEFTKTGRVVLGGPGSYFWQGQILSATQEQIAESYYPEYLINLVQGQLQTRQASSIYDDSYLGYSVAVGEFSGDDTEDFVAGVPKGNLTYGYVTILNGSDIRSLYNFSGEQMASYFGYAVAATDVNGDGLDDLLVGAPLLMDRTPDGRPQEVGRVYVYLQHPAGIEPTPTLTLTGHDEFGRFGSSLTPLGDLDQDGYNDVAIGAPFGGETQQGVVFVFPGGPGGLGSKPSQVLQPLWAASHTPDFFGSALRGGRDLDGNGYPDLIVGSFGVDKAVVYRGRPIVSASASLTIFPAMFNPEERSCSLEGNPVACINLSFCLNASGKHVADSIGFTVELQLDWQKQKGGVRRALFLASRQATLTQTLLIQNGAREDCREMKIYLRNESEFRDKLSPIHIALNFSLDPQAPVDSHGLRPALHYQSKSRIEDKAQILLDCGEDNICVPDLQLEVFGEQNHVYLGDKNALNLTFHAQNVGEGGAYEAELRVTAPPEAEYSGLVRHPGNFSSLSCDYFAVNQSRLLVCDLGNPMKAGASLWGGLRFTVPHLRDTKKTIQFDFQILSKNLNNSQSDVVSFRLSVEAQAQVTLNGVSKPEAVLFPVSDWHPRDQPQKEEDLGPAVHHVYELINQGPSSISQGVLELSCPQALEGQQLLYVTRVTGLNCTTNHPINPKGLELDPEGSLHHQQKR
Sequence of α5β1 integrin (P08648 895-1049 limits assumed): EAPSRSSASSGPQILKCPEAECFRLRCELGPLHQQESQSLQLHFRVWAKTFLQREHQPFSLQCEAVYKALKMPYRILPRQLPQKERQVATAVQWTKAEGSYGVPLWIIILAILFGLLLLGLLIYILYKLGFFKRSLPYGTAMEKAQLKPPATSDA
Sequence of α5β1 integrin (P05556 21-798): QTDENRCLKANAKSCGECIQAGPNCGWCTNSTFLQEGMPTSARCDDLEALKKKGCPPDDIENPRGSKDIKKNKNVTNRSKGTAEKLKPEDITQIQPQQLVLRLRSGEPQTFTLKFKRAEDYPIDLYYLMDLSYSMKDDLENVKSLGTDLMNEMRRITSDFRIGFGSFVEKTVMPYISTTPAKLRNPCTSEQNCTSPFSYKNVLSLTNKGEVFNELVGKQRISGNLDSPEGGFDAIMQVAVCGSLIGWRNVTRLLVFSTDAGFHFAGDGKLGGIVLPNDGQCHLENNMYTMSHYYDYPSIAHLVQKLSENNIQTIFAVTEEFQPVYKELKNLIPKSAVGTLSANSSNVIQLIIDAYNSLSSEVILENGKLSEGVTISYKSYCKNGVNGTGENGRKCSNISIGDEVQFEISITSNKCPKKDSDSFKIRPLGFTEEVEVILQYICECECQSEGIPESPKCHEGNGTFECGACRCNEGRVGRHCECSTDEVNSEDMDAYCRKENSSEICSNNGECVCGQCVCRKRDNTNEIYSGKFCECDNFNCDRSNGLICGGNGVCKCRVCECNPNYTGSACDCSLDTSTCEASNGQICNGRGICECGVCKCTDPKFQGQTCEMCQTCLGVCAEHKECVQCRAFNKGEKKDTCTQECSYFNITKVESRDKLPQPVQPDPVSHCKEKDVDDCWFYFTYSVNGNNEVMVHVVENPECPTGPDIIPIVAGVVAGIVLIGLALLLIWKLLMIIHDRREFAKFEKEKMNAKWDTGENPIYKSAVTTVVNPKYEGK
Protocol: as §1, §2, §3

αvβ3 integrin = αvβ3 integrin (Homo sapiens, UniProt P05106+P06756); experiment: Solid phase ligand binding assay (ELISA)
Sequence of αvβ3 integrin (P06756 31-889 limits assumed): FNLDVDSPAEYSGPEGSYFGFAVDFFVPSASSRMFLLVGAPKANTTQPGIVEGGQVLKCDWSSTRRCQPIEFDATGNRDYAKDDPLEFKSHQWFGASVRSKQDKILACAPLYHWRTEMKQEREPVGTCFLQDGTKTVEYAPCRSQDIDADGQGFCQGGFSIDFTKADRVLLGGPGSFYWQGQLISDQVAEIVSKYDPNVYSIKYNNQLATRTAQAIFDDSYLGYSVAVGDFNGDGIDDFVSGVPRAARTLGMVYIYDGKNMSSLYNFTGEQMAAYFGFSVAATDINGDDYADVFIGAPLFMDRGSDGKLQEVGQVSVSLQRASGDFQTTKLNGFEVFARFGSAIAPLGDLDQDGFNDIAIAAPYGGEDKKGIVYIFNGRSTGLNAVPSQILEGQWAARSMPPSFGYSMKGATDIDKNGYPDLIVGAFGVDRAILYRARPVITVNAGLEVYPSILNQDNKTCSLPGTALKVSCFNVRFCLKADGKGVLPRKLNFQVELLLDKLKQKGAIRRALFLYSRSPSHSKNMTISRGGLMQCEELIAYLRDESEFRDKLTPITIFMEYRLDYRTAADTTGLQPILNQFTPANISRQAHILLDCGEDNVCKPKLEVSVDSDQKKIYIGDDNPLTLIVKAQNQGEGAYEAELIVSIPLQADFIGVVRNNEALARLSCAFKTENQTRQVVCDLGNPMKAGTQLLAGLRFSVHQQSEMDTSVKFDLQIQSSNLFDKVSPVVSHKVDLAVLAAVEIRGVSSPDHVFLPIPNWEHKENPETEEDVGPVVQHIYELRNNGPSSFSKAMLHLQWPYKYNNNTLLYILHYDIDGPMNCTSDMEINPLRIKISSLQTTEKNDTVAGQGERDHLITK
Sequence of αvβ3 integrin (P06756 891-1048 limits assumed): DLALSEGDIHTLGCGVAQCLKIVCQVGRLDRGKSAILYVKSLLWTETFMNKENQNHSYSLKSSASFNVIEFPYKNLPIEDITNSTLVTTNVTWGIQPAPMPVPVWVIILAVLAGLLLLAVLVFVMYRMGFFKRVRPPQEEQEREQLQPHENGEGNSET
Sequence of αvβ3 integrin (P05106 27-788): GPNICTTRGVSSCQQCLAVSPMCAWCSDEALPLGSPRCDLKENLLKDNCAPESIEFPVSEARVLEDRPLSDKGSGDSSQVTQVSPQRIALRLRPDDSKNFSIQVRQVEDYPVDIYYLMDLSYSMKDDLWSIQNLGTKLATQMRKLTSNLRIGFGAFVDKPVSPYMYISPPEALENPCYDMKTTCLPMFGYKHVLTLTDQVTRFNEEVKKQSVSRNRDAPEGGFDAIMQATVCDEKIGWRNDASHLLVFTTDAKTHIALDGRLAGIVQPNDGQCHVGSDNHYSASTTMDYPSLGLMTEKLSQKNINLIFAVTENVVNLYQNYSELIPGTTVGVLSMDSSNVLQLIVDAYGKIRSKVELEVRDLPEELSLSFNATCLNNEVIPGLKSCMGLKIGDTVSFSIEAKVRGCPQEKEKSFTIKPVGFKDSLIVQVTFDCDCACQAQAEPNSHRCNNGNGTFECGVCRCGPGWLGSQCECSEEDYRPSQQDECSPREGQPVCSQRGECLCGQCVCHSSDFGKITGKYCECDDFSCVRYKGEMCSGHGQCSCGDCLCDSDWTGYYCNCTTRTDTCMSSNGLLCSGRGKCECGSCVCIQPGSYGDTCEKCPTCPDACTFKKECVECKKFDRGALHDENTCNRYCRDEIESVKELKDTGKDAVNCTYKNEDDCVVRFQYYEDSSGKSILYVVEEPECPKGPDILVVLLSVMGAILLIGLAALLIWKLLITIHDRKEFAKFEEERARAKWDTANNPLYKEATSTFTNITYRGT
Protocol: as §1, §2, §3

αvβ5 integrin = αvβ5 integrin (Homo sapiens, UniProt P06756+P18084); experiment: Solid phase ligand binding assay (ELISA); conditions: immobilized integrin, GST-fusion ligand in solution
Protocol: as §1, §2, §3

endothelial cells = experiment: Adhesion of endothelial cells to wells coated with GST fusion proteins; format: cell-based, human; conditions: coating 1, 5, 10 nM; 45 min
Protocol: FIG. 10A: Affinity purified GST-fusion proteins were resolved on SDS±PAGE and stained with Coomassie Blue. FIG. 10B: Integrins were immobilized onto 96-well plates, and various GST-fusion proteins (ligands) were allowed to bind. Bound ligands were incubated with anti-GST antibodies, appropriate substrate added and the color intensity measured. OD values <0.05 were considered to be background binding. Data are expressed as mean±SD (n=4). FIG. 10C: Dose-dependent binding of αvβ3 integrin with recombinant GST-VCIP-RGD. FIGS. 10D-F: Representative photomicrographs of adhesion and spreading of endothelial cells replated onto dishes coated with either fibronectin (FIG. 9D), vitronectin (FIG. 9E) or GST-VCIP-RGD (FIG. 9F). […] Attached cells were stained, washed and absorbances of eluted dyes measured. […] Attached cells were stained, washed and absorbances of eluted dyes determined. […] Data are expressed as mean±S.D.; diamond, P<0.01; asterisk, P<0.001. […]
For adhesion blocking assays, endothelial cells were detached, washed with PBS and resuspended in M199 media containing 1 mM CaCl2 and 1 mM MgCl2 in the absence of serum or growth factors. […] Absorbances were measured at 540 nm.
Next, the capacity of VCIP-RGD to bind endothelial cell integrins was evaluated by determining the effect of GST-VCIP fusion proteins on cell adhesion and spreading.

αvβ3 and α5β1 integrins = experiment: GST pull-down from [35S]Cys/Met-labelled endothelial cell lysates; format: binding, human; conditions: 10 μg per 3 mg lysate
[1] = tested on: Fak, Cas, Shc and paxillin; experiment: Tyrosine phosphorylation of focal adhesion proteins in replated HUVECs; format: cell-based, human; conditions: HUVECs replated on coated dishes, 30 and 60 min
Protocol: Dishes were coated with either fibronectin (Fn, 10 μg/ml), vitronectin (Vn, 10 μg/ml) or affinity purified GST-VCIP-RGD or -RGE fusion proteins (10 and 20 nM). Endothelial cells were detached, washed and maintained in suspension (Sus) for 30 min, then allowed to re-attach for 30 or 60 min. Adherent cells were solubilized in RIPA buffer. Blots shown are representative of those obtained in at least three separate experiments. FIGS. 11A-E: Equal amounts of protein (˜1.0 mg) from clarified extracts were subjected to immunoprecipitation (IP) followed by immunoblotting using the indicated antibodies. FIG. 11F: Equal amounts of protein from total lysates (35 μg/lane) were subjected to immunoblotting with the anti-phospho-Erk½ antibody. FIG. 11G: The same membrane was stripped and re-probed with an anti-Erk½ antibody, showing that equivalent amounts of proteins used across the lanes.
Serum- and growth factor-starved HUVECs were allowed to attach and spread on dishes coated with optimal concentrations of fibronectin, vitronectin, GST-RGD-VCIP and GST-VCIP-RGE. Cells were harvested after 30 and 60 min at 37° C. Cells were then solubilized, clarified, pre-adsorbed, immunoprecipitated and subjected to immunoblotting with various antibodies as shown in FIG. 11. […] Cells that were replated onto GST-VCIP-RGE appeared rounded.

Sequence of α2β1 integrin (P17301 30-1181): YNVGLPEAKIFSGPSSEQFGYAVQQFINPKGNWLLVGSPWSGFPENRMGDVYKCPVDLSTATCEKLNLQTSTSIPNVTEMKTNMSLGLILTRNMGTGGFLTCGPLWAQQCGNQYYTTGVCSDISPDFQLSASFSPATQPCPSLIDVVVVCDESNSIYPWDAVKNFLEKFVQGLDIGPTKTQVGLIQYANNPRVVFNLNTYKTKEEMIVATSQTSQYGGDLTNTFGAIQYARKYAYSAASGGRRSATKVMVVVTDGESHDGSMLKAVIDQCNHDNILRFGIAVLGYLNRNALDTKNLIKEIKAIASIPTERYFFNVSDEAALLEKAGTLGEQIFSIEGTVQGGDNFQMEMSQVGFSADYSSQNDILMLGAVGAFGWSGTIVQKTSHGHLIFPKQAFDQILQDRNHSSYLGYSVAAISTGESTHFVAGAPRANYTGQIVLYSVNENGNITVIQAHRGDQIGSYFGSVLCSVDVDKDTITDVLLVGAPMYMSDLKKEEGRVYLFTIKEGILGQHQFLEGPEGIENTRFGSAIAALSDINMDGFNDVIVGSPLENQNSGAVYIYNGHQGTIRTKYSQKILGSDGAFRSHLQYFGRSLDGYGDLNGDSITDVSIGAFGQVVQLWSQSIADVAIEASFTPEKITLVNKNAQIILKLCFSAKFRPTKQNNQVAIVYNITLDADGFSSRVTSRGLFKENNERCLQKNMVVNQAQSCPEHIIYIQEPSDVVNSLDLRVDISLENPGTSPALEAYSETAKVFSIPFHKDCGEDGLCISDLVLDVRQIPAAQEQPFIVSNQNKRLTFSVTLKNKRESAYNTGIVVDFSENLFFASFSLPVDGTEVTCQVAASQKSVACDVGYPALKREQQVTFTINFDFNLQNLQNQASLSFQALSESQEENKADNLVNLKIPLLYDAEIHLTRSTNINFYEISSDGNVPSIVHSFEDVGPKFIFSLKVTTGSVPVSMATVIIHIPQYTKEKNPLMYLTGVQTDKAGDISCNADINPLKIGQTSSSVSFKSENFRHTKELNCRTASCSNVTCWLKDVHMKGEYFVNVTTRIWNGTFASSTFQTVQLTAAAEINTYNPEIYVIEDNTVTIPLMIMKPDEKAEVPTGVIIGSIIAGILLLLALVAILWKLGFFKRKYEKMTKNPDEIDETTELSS
Sequence of α2β1 integrin (P05556 21-798): as the sequence (P05556 21-798) above

interaction with α2β1 integrin (α2β1 integrin): did not
interaction with α5β1 integrin (α5β1 integrin): interacted
interaction with αvβ3 integrin (αvβ3 integrin; immobilized integrin, GST-fusion ligand in solution): interacted
interaction with αvβ5 integrin (αvβ5 integrin): did not
Substance: GST-VCIP-RGD: recombinant GST fusion of 49 amino acid residues (145-194) of VCIP second extracellular loop, wild-type RGD (DIAKVSIGRLRPHFLSVCNPDFSQINCSEGYIQNYRCRGDDSKVQEARKS; cysteine pairing not given here; also: GST fusion)
dose-dependence of binding to αvβ3 integrin (αvβ3 integrin; FIG. 10C): bound to αvβ3 integrin in a dose-dependent manner
adhesion of endothelial cells to coated wells (endothelial cells): comparable to that observed in wells coated with vitronectin and fibronectin substrates
integrins present in pull-down complex (αvβ3 and α5β1 integrins): contained anti-αvβ3 and -α5β1 immunoreactivities
tyrosine phosphorylation of Fak, Cas, Shc and paxillin [1]: comparable to those induced by fibronectin and vitronectin
tyrosine phosphorylation of Fak, Cas, Shc and paxillin ([1]; listed as VCIP-RGD): induced tyrosine phosphorylation of Fak, Cas, Shc and paxillin at both 30 and 60 min
